Reference: patent publication US20240261333A1 (published 2024)

What was measured:
Assay in all cases: co-IP with anti-FLAG, N-FLAG B3GNT2, mass spectrometry
SYNCRIP = target: T1, SYNCRIP (human, UniProt O60506-3 2-562, limits assumed)
T1 construct: also called NP_001153148.1 (+1)
T1 sequence (looked up): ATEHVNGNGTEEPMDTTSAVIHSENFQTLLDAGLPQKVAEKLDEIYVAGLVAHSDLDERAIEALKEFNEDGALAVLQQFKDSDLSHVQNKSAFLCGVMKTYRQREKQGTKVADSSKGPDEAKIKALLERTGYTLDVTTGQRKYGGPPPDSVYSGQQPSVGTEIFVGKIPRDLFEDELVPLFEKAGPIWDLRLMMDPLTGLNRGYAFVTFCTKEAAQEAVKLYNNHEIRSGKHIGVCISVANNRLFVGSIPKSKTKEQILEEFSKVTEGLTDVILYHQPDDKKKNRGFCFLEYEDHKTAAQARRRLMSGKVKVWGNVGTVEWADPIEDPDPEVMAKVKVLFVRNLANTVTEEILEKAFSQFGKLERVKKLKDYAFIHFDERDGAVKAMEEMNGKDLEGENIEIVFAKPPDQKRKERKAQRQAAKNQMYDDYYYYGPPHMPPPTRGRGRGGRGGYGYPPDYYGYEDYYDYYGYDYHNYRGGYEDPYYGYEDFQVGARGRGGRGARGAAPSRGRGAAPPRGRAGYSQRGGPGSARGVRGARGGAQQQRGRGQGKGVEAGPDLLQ

HNRNPM = target: T2, HNRNPM (human, UniProt P52272 2-730)
T2 construct: also called NP_005959.2 (+1)
T2 sequence (looked up): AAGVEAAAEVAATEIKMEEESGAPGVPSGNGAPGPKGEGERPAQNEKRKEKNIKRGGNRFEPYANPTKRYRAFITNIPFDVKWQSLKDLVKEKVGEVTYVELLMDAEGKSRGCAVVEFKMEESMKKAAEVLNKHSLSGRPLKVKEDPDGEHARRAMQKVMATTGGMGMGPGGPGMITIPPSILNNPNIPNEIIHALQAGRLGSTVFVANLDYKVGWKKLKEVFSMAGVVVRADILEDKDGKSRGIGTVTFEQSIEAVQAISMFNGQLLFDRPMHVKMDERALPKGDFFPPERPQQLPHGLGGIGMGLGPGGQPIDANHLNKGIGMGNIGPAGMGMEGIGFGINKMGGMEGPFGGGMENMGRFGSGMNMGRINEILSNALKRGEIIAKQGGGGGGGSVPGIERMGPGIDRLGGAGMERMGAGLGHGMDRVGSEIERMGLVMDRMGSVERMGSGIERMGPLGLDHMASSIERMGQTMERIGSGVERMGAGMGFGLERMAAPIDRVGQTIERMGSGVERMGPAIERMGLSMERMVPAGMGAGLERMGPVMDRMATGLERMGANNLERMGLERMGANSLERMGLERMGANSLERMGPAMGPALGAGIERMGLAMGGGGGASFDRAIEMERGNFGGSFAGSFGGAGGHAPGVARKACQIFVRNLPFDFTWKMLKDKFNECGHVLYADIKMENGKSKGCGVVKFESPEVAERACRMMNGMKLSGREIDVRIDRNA

LAMC1 = target: T3, LAMC1 (human, UniProt P11047 34-1609)
T3 construct: also called NP_002284.3

SPARC = target: T4, SPARC (human, UniProt P09486 18-303)
T4 construct: also called NP_001296372.1 (+1)
T4 sequence (looked up): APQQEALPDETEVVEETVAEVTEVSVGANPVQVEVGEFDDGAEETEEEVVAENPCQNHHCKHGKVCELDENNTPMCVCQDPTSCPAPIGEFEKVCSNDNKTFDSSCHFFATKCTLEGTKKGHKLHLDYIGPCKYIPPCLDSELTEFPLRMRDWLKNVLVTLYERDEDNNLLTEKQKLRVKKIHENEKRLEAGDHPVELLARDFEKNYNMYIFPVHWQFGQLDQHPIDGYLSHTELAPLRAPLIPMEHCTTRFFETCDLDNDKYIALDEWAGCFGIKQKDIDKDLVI

DDX3X = target: T5, DDX3X (human, UniProt O00571 2-662)
T5 construct: also called NP_001180345.1 (+1)

RUVBL2 = target: T6, RUVBL2 (human, UniProt Q9Y230 2-463)
T6 construct: also called NP_006657.1

RPS24 = target: T7, RPS24 (human, UniProt P62847-4 1-289, limits assumed)
T7 construct: also called NP_001135757.1
T7 sequence (P62847 other isoform, or with tags, fused parts or gaps limits assumed): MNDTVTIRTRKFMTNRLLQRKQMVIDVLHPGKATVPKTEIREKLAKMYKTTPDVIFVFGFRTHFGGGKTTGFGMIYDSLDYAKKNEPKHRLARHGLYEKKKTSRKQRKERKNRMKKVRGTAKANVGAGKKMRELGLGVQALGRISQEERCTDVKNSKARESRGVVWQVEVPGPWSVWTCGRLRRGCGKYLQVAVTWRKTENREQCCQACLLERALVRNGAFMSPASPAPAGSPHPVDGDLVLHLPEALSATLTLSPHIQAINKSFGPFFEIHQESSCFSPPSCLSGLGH

T5 sequence (O00571 2-662 limits assumed): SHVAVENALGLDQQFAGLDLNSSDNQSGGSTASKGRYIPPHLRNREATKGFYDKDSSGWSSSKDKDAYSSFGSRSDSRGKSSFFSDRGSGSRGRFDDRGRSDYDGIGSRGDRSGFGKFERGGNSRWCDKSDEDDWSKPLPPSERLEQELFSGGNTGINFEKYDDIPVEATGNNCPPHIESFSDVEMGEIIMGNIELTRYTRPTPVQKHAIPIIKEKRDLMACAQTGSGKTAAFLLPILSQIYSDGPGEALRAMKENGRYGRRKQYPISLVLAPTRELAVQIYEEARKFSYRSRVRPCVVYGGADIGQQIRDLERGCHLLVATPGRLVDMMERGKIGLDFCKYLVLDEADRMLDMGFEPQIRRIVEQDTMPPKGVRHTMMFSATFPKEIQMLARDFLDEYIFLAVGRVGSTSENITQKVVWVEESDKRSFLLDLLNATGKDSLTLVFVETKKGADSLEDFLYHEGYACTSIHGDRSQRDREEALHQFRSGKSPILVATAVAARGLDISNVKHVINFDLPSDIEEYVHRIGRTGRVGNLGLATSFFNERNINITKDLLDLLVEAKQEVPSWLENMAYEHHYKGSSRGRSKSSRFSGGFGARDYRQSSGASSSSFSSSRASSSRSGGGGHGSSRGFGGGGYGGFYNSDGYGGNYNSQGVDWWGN
T6 sequence (Q9Y230 2-463 limits assumed): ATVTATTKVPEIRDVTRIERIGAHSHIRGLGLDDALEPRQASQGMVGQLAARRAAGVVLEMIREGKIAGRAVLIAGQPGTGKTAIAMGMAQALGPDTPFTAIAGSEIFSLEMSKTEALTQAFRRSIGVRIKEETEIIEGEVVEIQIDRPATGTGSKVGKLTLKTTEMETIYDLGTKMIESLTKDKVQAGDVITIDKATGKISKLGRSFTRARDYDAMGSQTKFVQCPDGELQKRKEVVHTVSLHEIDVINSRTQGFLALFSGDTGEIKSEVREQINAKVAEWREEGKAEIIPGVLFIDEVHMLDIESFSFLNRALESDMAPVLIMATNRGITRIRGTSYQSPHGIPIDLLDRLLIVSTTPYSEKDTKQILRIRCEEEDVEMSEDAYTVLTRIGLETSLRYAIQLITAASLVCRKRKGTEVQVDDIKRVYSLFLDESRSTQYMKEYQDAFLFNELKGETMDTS
T3 sequence (P11047 34-1609 limits assumed): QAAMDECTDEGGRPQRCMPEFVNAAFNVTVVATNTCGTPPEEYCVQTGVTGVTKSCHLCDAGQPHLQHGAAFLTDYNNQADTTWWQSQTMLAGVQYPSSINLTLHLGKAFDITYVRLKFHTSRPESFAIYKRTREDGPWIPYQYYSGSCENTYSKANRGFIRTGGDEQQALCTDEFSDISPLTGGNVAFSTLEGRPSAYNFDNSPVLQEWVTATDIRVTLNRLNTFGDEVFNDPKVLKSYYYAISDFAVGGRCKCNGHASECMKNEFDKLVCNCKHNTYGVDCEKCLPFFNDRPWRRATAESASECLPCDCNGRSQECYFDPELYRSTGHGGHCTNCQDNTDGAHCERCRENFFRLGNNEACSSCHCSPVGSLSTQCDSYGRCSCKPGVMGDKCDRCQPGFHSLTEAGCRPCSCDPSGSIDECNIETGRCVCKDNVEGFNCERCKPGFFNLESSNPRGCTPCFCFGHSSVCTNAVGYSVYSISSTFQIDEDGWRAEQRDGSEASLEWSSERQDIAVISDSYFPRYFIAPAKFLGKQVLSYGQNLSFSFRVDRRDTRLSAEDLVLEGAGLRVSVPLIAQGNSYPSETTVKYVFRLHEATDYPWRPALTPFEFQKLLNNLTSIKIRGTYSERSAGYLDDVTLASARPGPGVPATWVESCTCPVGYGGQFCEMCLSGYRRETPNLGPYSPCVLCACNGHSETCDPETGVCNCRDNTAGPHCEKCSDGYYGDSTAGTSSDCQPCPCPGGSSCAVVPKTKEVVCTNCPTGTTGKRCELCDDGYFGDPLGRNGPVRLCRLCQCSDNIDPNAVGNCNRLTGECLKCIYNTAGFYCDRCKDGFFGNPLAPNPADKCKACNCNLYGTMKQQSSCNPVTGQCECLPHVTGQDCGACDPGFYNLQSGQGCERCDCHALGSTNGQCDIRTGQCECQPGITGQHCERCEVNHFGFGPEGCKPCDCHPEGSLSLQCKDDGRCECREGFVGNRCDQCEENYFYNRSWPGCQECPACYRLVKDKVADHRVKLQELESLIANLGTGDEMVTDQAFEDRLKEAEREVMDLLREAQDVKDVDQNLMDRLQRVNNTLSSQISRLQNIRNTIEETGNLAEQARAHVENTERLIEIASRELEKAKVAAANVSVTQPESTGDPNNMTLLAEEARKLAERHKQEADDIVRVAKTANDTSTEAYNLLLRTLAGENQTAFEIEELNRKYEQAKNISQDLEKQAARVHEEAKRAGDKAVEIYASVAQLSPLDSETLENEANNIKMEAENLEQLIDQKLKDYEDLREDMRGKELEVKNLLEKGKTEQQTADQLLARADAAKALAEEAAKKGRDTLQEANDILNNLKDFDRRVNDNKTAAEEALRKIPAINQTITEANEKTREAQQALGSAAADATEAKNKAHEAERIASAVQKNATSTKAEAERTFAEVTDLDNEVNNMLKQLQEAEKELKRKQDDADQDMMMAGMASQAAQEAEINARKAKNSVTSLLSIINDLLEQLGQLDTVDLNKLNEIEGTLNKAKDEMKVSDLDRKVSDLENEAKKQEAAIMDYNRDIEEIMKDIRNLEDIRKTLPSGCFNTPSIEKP

Row | Binder | co-IP mass spectrometry count (SYNCRIP) | co-IP mass spectrometry count (HNRNPM) | co-IP/MS count, N-term FLAG (LAMC1) | co-IP/MS count, N-term FLAG (SPARC) | co-IP/MS count, N-term FLAG (DDX3X) | co-IP/MS count, N-term FLAG (RUVBL2) | co-IP/MS count, N-term FLAG (RPS24)
1 | N-terminal FLAG tagged B3GNT2 (enzyme, human, UniProt Q9NY97 1-397, looked up, FLAG-tagged ORF overexpressed in cells; pulled down from lysate with mouse anti-FLAG; also called N-FLAG B3GNT2; N-term FLAG; not shown: N-terminal FLAG tag) MSVGRRRIKLLGILMMANVFIYFIMEVSKSSSQEKNGKGEVIIPKEKFWKISTPPEAYWNREQEKLNRQYNPILSMLTNQTGEAGRLSNISHLNYCEPDLRVTSVVTGFNNLPDRFKDFLLYLRCRNYSLLIDQPDKCAKKPFLLLAIKSLTPHFARRQAIRESWGQESNAGNQTVVRVFLLGQTPPEDNHPDLSDMLKFESEKHQDILMWNYRDTFFNLSLKEVLFLRWVSTSCPDTEFVFKGDDDVFVNTHHILNYLNSLSKTKAKDLFIGDVIHNAGPHRDKKLKYYIPEVVYSGLYPPYAGGGGFLYSGHLALRLYHITDQVHLYPIDDVYTGMCLQKLGLVPEKHKGFRTFDIEEKNKNNICSYVDLMLVHSRKPQEMIDIWSQLQSAHLKC | 2 | 6 |  |  |  |  | 
2 | N-terminal FLAG tagged B3GNT2 (enzyme, human, UniProt Q9NY97 1-397, looked up, FLAG-tagged ORF overexpressed in A375 cells; pulled down from the lysate with mouse anti-FLAG; also called N-FLAG B3GNT2; N-term FLAG; not shown: N-terminal FLAG tag) MSVGRRRIKLLGILMMANVFIYFIMEVSKSSSQEKNGKGEVIIPKEKFWKISTPPEAYWNREQEKLNRQYNPILSMLTNQTGEAGRLSNISHLNYCEPDLRVTSVVTGFNNLPDRFKDFLLYLRCRNYSLLIDQPDKCAKKPFLLLAIKSLTPHFARRQAIRESWGQESNAGNQTVVRVFLLGQTPPEDNHPDLSDMLKFESEKHQDILMWNYRDTFFNLSLKEVLFLRWVSTSCPDTEFVFKGDDDVFVNTHHILNYLNSLSKTKAKDLFIGDVIHNAGPHRDKKLKYYIPEVVYSGLYPPYAGGGGFLYSGHLALRLYHITDQVHLYPIDDVYTGMCLQKLGLVPEKHKGFRTFDIEEKNKNNICSYVDLMLVHSRKPQEMIDIWSQLQSAHLKC |  |  | 0 | 0 | 18 | 0 | 0
